In article PMC4845985:

Tests used:
[1] = biological target: human 60S ribosomal subunit (human (endogenous in HeLa)); experiment: fluorescence polarisation; competition: non-labeled eIF5A titrated (from 5 μM) into preformed ribosome-eIF5A-fl, ribosome 50 nM; same buffer, 30°C 30 min; apparent Ki
[2] = biological target: human reconstituted 80S ribosome (40S+60S) (human (endogenous in HeLa)); experiment: as above
[3] = biological target: human reconstituted 80S ribosome with Met-tRNAi^Met (40S+60S+Met-tRNAi^Met) (human (endogenous in HeLa)); experiment: as above
[4] = biological target: yeast pre-assembled 80S ribosome (yeast) (UniProt P26321); experiment: as above
[5] = biological target: fluorescein-labelled hypusine-containing human eIF5A^C22A,C38A,C73A,C129A,T142C (human) (UniProt P63241); experiment: fluorescence polarisation; ribosomal complex titrated into 5-10 nM eIF5A-fl; 20 mM Hepes pH 7.5, 100 mM KOAc, 2.5 mM Mg(OAc)2, 1 mM DTT, 15 μM BSA; 30°C 30 min
[6] = biological target: fluorescein-labelled hypusine-containing human eIF5A^C22A,C38A,C73A,C129A,T142C (human) (UniProt P63241); experiment: fluorescence polarisation; yeast 80S titrated into eIF5A-fl in the presence of saturating eEF2 (1 μM); same buffer, 30°C
[7] = biological target: human ribosomes (complex not specified) (human (endogenous in HeLa)); experiment: fluorescence polarisation; yeast eIF5A with human ribosomes by anisotropy change; data not shown
[8] = biological target: yeast pre-assembled 80S ribosome (yeast) (UniProt P26321); experiment: fluorescence polarisation; competition: non-labeled yeast eIF5A titrated into preformed 80S-eIF5A-fl in the presence of saturating eEF2

| Molecule | Ki [4] [nM] | Kd [5] [nM] | further results |
| --- | --- | --- | --- |
| non-labeled hypusine-containing human eIF5A (from UniProt P63241 1-154) (natural protein) | < 5 |  | Ki [1]: 16 nM; Ki [2]: 12 nM; Ki [3]: < 5 nM |
| yeast pre-assembled 80S ribosome (from UniProt P26321 1-297) (complex) |  | 10 | Kd in the presence of saturating eEF2 [6]: 41 nM |
| human reconstituted 80S ribosome with Met-tRNAi^Met (40S+60S+Met-tRNAi^Met) (complex) |  | 7 |  |
| non-hypusine-containing human eIF5A^T142C (lysine-containing) (from UniProt P63241 1-154) (natural protein) |  |  | Ki [1]: 385 nM |
| yeast eIF5A tested on human ribosomes (data not shown) (from UniProt P23301 1-157) (natural protein) |  |  | affinity (constant not named) [7]: > 2000 nM |
| human 40S ribosomal subunit (complex) |  | > 1700 |  |

More lines, main results first:

| Ki [4] [nM] | Kd [5] [nM] | Molecule | further results |
| --- | --- | --- | --- |
|  | 13 | human reconstituted 80S ribosome (40S+60S) (complex) |  |
|  | 128 | human 60S ribosomal subunit (complex) |  |
| 9 |  | yeast eIF5A^C39A (natural protein, hypusine (co-expressed with the modifying enzymes; position not given)) MSDEEHTFETADAGSSATYPMQCSALRKNGFVVIKSRPAKIVDMSTSKTGKHGHAKVHLVAIDIFTGKKLEDLSPSTHNMEVPVVKRNEYQLLDIDDGFLSLMNMDGDTKDDVKAPEGELGDSLQTAFDEGKDLMVTIISAMGEEAAISFKEAARTD | Ki in the presence of saturating eEF2 [8]: 51 nM |
| 569 |  | yeast eIF5A^C39A,Q22H,L93F (natural protein, hypusine-containing (position not given)) MSDEEHTFETADAGSSATYPMHCSALRKNGFVVIKSRPAKIVDMSTSKTGKHGHAKVHLVAIDIFTGKKLEDLSPSTHNMEVPVVKRNEYQLFDIDDGFLSLMNMDGDTKDDVKAPEGELGDSLQTAFDEGKDLMVTIISAMGEEAAISFKEAARTD | Ki in the presence of saturating eEF2 [8]: 539 nM |
| 189 |  | yeast eIF5A^C39A,K56A (natural protein, hypusine-containing (position not given)) MSDEEHTFETADAGSSATYPMQCSALRKNGFVVIKSRPAKIVDMSTSKTGKHGHAAVHLVAIDIFTGKKLEDLSPSTHNMEVPVVKRNEYQLLDIDDGFLSLMNMDGDTKDDVKAPEGELGDSLQTAFDEGKDLMVTIISAMGEEAAISFKEAARTD | Ki in the presence of saturating eEF2 [8]: 454 nM |
